Assay results taken from the nanobody polyreactivity screen of Harvey et al. (2022).

Assay: yeast display, Sf9 membrane polyspecificity reagent, FACS + sequencing; frameworks hold sequencing errors
Summary of the method: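 Galactose induction of a Saccharomyces cerevisiae BJ5465 synthetic nanobody display library ran 36–48 hours. The cells were then stained for 1 hour at 4 °C with 10% biotinylated, detergent-solubilized Sf9 membrane reagent, pulled down on streptavidin microbeads and FACS-sorted into low and high (top ~1%) gates on expression and reagent-binding fluorescence. Labels for polyreactivity follow the gate of origin.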

| Sequence | polyreactivity (PSR sort gate) |
| --- | --- |
| QVQLVESGGGLVQAGGSLRLSCAASGFTFTRYAMGWYRQAPGKERELVAAISWNSGSTYYADSVKGRFTISRDNAKNTVYLQMNSLKPEDTAVYYCAAAFLRVYYGYTGAFDYWGQGTQVTVSS | high polyreactivity |
| QVQLVESGGGLVQAGGSLRLSCAASGFTFTSYVMGWYRQAPGKEREFVAAITRSAGGTYYADSVKGRFTISRDNAQNTFYLQINSLKPEDTAVYYCAAEYYVPGGGAYRGDYWGQGTQVTGSS | high polyreactivity |
| QVQLVESGGGLVQAGGSLRLSCAASGFTFTWYAMGWYRPAPGKERELVAAISSGGGRTYYADSVKGRFTISRDNAKNTVYLQMNSLKPEDTAVYYCNKVSSFGYYYWGQGTQVTVSS | high polyreactivity |
| QVQLVESGGGLVQAGGSLRLSCAASGFTFTWYAMGWYRQAPGKERELVATISRSGGRTYYADSVKGRFTISRDNAKNPVYLQMNSLKPEVTAVYYCAADTRNYPRYDYWGQGTQVTVSS | high polyreactivity |
| QVQLVESGGGLVQAGGSLRLSCAASGFTFTWYAMGWYRQAPGKERELVATISRSGGRTYYADSVKGRFTISRDNAKNTVYLQMNSLKPEDTAVYYCAADTRNYPRYDYWGQGTQVTVSS | high polyreactivity |
| QVQLVESGGGLVQAGGSLRLSCAASGFTFTYNAMGWYRQAPGKERELVAAITANGGGTNYADSVKGRFTISRDNEKNTVYLQMNSLKPEDTAVYYCAATIVVAVFESLGFYWYTEDNYWGQGTQVTVSS | low polyreactivity |
| QVQLVESGGGLVQAGGSLRLSCAASGFTFTYNAMGWYRQAPGKERELVAAITLSGGSTYADSVKGRFTISRDNAKNTVYLQMNSLKPEDTAVYYCNADAGVYSANATDGYDYWGQGTQVTVSS | low polyreactivity |
| QVQLVESGGGLVQAGGSLRLSCAASGFTFTYYAMGWYRQAPGKERELVAAITKSGGSTYYADSVKGRFTISRDNAKNTVYFQMNSLKPEDTAVYYCAADTRYGRERYYWGQGTQVTVSS | high polyreactivity |
| QVQLVESGGGLVQAGGSLRLSCAASGFTFTYYTMGWYRQAPGKERELVAAISWSGSSTYYADSVKGRFTISRDNAKNTVYLQMNSLKPEDTAVYYCAAKYRGKYYYWGQGTQVTVSS | high polyreactivity |
| QVQLVESGGGLVQAGGSLRLSCAASGFTFVAYAMGWYRQAPGKERELVAALRRTGGSSSYADSVKGRFTISRDIAKNTVYLQMNRLKPEDTSVYYCNKVRLISGVYWSYQAFGYWGQGTQVTVSS | high polyreactivity |
| QVQLVESGGGLVQAGGSLRLSCAASGFTFVEYAMGWYRQAPGKERELVASIRRSGGRTYYADSVKGRFTISRDNAKNTVYLQMNSLKPEDTAVYYCAKSVPRYYSKSGLAYEFDYWGQGTQVTVSS | low polyreactivity |
| QVQLVESGGGLVQAGGSLRLSCAASGFTFVFYAMGWYRQAPGKERELVAGISRTGGSTYYADSVKGRFTISRDNAKNTVYLQMNSLKPEDTAVYYCNAARFTRRDYWGQGTQVTVSS | high polyreactivity |
| QVQLVESGGGLVQAGGSLRLSCAASGFTFVGNAMGWYRQAPGKERELVATITSGGNTKYADSVKGRFTISRDNAKNTVYLQMNSLKPEDTAVYYCAAAKYNYRRFNSWGQGTQVTVSS | low polyreactivity |
| QVQLVESGGGLVQAGGSLRLSCAASGFTFVINDMGWYRQAPGKERELVADITSGGDTYYADSVKGRFTISRDNAKNTVYLQLNSLKPEDTAVYYCAADIYPDWIYLLYGYWGQGTQVTVSS | low polyreactivity |
| QVQLVESGGGLVQAGGSLRLSCAASGFTFVNYVMGWYRQAPGKERELVAAISRSGGSTYYADSVKGRFTISRDNAKNTVYLQMNSLKPEDTAVYYCAARWFYRAGFNYWGQGTQVTVSS | high polyreactivity |
| QVQLVESGGGLVQAGGSLRLSCAASGFTFVPYAMGWYIQAPGKERELVAAISSRGDSTYYADSVKGRFTISRDNAKNTVYLQMNSLKPEDTAVYYCNARTTPHMDYWGQGTQVTVSS | low polyreactivity |
| QVQLVESGGGLVQAGGSLRLSCAASGFTFVPYAMGWYRQAPGKERELVAAISYSGGSRYYADSVKGRFTISRDNAKNTVYLQMNSLKPEDTAVYYCAALRWYHYGYWGQGTQVTVSA | high polyreactivity |
| QVQLVESGGGLVQAGGSLRLSCAASGFTFVQYAMGWYRQAPGKERELVATISKSGGITYYADSVKGRFKISRDYAKNTVYLQMNSLKPEDTAVYYCAASWYYSSRGFHATWGHDYWGQGTQVTVSS | low polyreactivity |
| QVQLVESGGGLVQAGGSLRLSCAASGFTFVRNAMGWYRQAPGKEREFVAAITWTGGSTSYADSVKGRFTISRDNAMITVYLQMNSLKPEDTAVYYCDAVGYGYGFEYWGQGTQVTVSA | high polyreactivity |
| QVQLVESGGGLVQAGGSLRLSCAASGFTFVRYAMGWYRQAPGKEREFVAGITRSGGSTYYADSVKGRFTISRDNAKNTVYLQMNSLKPEDTAVYYCNRAYYSYHDQPYEYWGQGTQVSVSS | high polyreactivity |

| Sequence | polyreactivity (PSR sort gate) |
| --- | --- |
| QVQLVESGGGLVQAGGSLRLSCAASGFTFVRYAMGWYRQAPGKERELVAAISSSGSSTYYADSVKGRFTISRDPVKNTVYLQMNSLIPEDTAVYYFNARAGGGEDYWGQGTQVTVSS | low polyreactivity |
| QVQLVESGGGLVQAGGSLRLSCAASGFTFVRYAMGWYRQAPGKERELVAGISRRGGSTYYADSVKGRFTISRDNAKNTVYLQMNSLKPEDTAVYYCAAKPIYYSRGYYWGQGTQVTVSS | high polyreactivity |
| QVQLVESGGGLVQAGGSLRLSCAASGFTFVRYTMGWYRKAPGKERELVAAITASGDRTYYADSVKGRFTISRDNAKNTVYLQMNSLKPEDTAVYYCAKEYWGVTPTYYYWGQGTQVTVSS | high polyreactivity |
| QVQLVESGGGLVQAGGSLRLSCAASGFTFVRYTMGWYRQAPGKERELVAAITASGDRTYYADSVKGRFTISRDNAKNTVYLQMNSLKPEDTAVYYCAARVWRTVTRSKYGYWGQGTQVTVSS | high polyreactivity |
| QVQLVESGGGLVQAGGSLRLSCAASGFTFVSYAMGWSRQAPGKERELVAVISKSGSRTSYAESVKGRFTISRDNAKNTVYLQMNSLKPEDTAVYYCAVYYTRIGPRYDYWGQGTQVTVSS | high polyreactivity |
| QVQLVESGGGLVQAGGSLRLSCAASGFTFVSYAMGWYRQAPGKERELVASITWTGGSTYYADSVKGRFTISRDNAKNTVYLQMNSLKPEDTAVYYGAAQQFYSGILGRYYWGQGTQVTVSS | low polyreactivity |
| QVQLVESGGGLVQAGGSLRLSCAASGFTFVTNAMGWYRQAPGKERELVAAISSSGARTYYADSVKGRFTISRDNAKNTVYLQMNSLKPEDTAVYYCAVYYYDFTSTEYGYWGQGTQVTVSS | high polyreactivity |
| QVQLVESGGGLVQAGGSLRLSCAASGFTFVVYAMGWYRQAPGKERELVAAISARGGRTYYADSVKGRFTISRDNAKNTVYLQMNSLKPEDTAVYYCAATNQRQTRYDYWGQGTQVTVSS | high polyreactivity |
| QVQLVESGGGLVQAGGSLRLSCAASGFTFVYNAMGWYRQAPGKERELVAAITSGGNTYYADSVKGRFTISRDNAKNTVYLQMNSLKPEDTAVYYCAKRGYVRYYAYDYWGQGTQVTVSS | high polyreactivity |
| QVQLVESGGGLVQAGGSLRLSCAASGFTFVYNAMGWYRQAPGKERELVAAITSGGNTYYADSVKGRFTISRDNAKNTVYLQMNSLKPEDTAVYYCAKVQNGQWSTSRVPGDYQYNYWGQGTQVTVSS | high polyreactivity |
| QVQLVESGGGLVQAGGSLRLSCAASGFTFVYYAMGWYRQAPGKERELVAAISSGGRTYYADSVKGRFTISRDNAKNTVYLQMNSLKPEDTAGYYCNKKVGSYYRSYYYWGQGTQVTVSS | high polyreactivity |
| QVQLVESGGGLVQAGGSLRLSCAASGFTFVYYAMVWYRQAPGKERELVAAISRSGGSTYYADSVKGRFTISRDNAKNTVYLQMNSLKPEDTAVYYCAADIVARYPYDYAMYYWGQGTQVTVSS | high polyreactivity |
| QVQLVESGGGLVQAGGSLRLSCAASGFTFVYYNMGWYRQAPGKERELVAAITQSGGRTYYADSVKGRFTISRDNAKNTVYLQMNCLKPEDTAVYYCAARLWGKRDYRMDYWGQGSQVTVSS | high polyreactivity |
| QVQLVESGGGLVQAGGSLRLSCAASGFTFVYYVMGWYRQAPGKERELVAAIRSGDGNTHYADTEKGRFTISRDNAKNTVYLQMNSLKPEDTAVYYCAASSRTFGYKYFYWGQGTQVTVSS | high polyreactivity |
| QVQLVESGGGLVQAGGSLRLSCAASGFTFWDYAMGWYRQAPGKESELVAAISDNDGSTDYADYVKGRFTISRDNAKNTVYLPMNSLKPEDTAVYYCNGEIELPSKEGDYWGQGTQVTVSS | low polyreactivity |
| QVQLVESGGGLVQAGGSLRLSCAASGFTFWFNAMGWYRQAPGKEREFVATISYSGASTYYADSVKGRFTISRDNAKNTVYLQMNSLKPEDTAVYYCAAANYDFYAFDSTYRYNYWGQGTQVTVSS | low polyreactivity |
| QVQLVESGGGLVQAGGSLRLSCAASGFTFWFYAMGWYRQAPGKERELVAAISWDGSRTYYADSVKGRFTISRDHAKNTVYLQMNSLKPEDTAVYYCAAESEDSNYNYWGQGTQVTVSS | high polyreactivity |
| QVQLVESGGGLVQAGGSLRLSCAASGFTFWGYGMGWYRQAPGKERELVAAISGSGGSTYYADSVKGRFTISRDNAKNTVYLQMNSLKPEDTAVYYCNKATQFYQWGASPYYPRRDYWGQGTQVTVSS | low polyreactivity |
| QVQLVESGGGLVQAGGSLRLSCAASGFTFWLYAMGCYRQAPGKEREFVAAISTSGGSTYADSVKGRFTISRDNAKNTVYLQMNSLKPEDTAVYYCNAGYLLYYDYHLFYWGQGTQVTVSS | low polyreactivity |
| QVQLVESGGGLVQAGGSLRLSCAASGFTFWLYAMGSYRQAPGKEREFVAAISTSGGYTYADSVKGRFTISRDNAKNTVYLQMNSLKPEDTAVYYCAVDGLPPKDALHLYYYWGQGTQVTVSS | low polyreactivity |
